Measurements published in patent publication US20200199212A1 (Eli Lilly, published 2020).

Biological target: T1, LPL on LPL-expressing cells (Example 1)
T1 sequence (P06858 28-475, species assumed, looked up): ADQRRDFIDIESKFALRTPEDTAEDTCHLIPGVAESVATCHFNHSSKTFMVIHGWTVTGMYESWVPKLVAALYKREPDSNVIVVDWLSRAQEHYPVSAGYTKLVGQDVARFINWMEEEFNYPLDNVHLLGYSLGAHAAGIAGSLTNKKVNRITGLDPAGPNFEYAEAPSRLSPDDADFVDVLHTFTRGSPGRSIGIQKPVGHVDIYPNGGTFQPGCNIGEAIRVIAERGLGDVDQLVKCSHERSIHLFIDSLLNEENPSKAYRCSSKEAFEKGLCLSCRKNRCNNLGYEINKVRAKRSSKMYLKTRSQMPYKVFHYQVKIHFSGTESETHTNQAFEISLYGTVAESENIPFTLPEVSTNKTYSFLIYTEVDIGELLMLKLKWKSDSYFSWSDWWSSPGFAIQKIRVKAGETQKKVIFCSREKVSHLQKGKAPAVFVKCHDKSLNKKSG
Assay: cell-based or functional assay

B1: human ANGPTL3 (ligand)
chain: SRIDQDNSSFDSLSPEPKSRFAMLDDVKILANGLLQLGHGLKDFVHKTKGQINDIFQKLNIFDQSFYDLSLQTSEIKEEEKELRRTTYKLQVKNEEVKNMSLELNSKLESLLEEKILLQQKVKYLEEQLTNLIQNQPETPEHPEVTSLKTFVEKQDNSIKDLLQTVEDQYKQLNQQHSQIKEIENQLRRTSIQEPTEISLSSKPRAPRTTPFLQLNEIRNVKHDGIPAECTTIYNRGEHTSGMYAIRPSNSQVFHVYCDVISGSPWTLIQHRIDGSQNFNETWENYKYGFGRLDGEFWLGLEKIYSIVKQSNYVLRIELEDWKDNKHYIEYSFYLGNHETNYTLHLVAITGNVPNAIPENKDLVFSTWDHKAKGHFNCPEGYSGGWWWHDECGENNLNGKYNKPRAKSKPERRRGLSWKSQNGRLYSIKSTKMLIHPTDSESFE
EC50 in the LPL assay (inhibition of LPL): 21.5 nM

B2: human ANGPTL3/8 complex (other)
chain 1: SRIDQDNSSFDSLSPEPKSRFAMLDDVKILANGLLQLGHGLKDFVHKTKGQINDIFQKLNIFDQSFYDLSLQTSEIKEEEKELRRTTYKLQVKNEEVKNMSLELNSKLESLLEEKILLQQKVKYLEEQLTNLIQNQPETPEHPEVTSLKTFVEKQDNSIKDLLQTVEDQYKQLNQQHSQIKEIENQLRRTSIQEPTEISLSSKPRAPRTTPFLQLNEIRNVKHDGIPAECTTIYNRGEHTSGMYAIRPSNSQVFHVYCDVISGSPWTLIQHRIDGSQNFNETWENYKYGFGRLDGEFWLGLEKIYSIVKQSNYVLRIELEDWKDNKHYIEYSFYLGNHETNYTLHLVAITGNVPNAIPENKDLVFSTWDHKAKGHFNCPEGYSGGWWWHDECGENNLNGKYNKPRAKSKPERRRGLSWKSQNGRLYSIKSTKMLIHPTDSESFEAAADYKDDDDK
chain 2: APMGGPELAQHEELTLLFHGTLQLGQALNGVYRTTEGRLTKARNSLGLYGRTIELLGQEVSRGRDAAQELRASLLETQMEEDILQLQAEATAEVLGEVAQAQKVLRDSVQRLEVQLRSAWLGPAYREFEVLKAHADKQSHILWALTGHVQRQRREMVAQQHRLRQIQERLHTAALPA
EC50 in the LPL assay (inhibition of LPL): 0.54 nM
